In publication PMC3445459:

Columns and labels:
[1] = target: HIV-1 integrase E85F, 6xHis-tagged (HIV-1 (NL4-3))
[2] = target: HIV-1 integrase E85F, 6xHis-tagged (HIV-1 (NL4-3)); remark: listed apart in the source
[3] = target: HIV-1 integrase K103E, 6xHis-tagged (HIV-1 (NL4-3))
LEDGF/p75 = LEDGF/p75 (UniProt O75475); experiment: AlphaScreen or HTRF; IN-LEDGF/p75 interaction assay as previously described (ref. 32), mutant IN proteins in place of WT; signal relative to WT IN
[4] = target: HIV-1 integrase W108F, 6xHis-tagged (HIV-1 (NL4-3))

Sequence of UniProt O75475 (O75475 whole entry): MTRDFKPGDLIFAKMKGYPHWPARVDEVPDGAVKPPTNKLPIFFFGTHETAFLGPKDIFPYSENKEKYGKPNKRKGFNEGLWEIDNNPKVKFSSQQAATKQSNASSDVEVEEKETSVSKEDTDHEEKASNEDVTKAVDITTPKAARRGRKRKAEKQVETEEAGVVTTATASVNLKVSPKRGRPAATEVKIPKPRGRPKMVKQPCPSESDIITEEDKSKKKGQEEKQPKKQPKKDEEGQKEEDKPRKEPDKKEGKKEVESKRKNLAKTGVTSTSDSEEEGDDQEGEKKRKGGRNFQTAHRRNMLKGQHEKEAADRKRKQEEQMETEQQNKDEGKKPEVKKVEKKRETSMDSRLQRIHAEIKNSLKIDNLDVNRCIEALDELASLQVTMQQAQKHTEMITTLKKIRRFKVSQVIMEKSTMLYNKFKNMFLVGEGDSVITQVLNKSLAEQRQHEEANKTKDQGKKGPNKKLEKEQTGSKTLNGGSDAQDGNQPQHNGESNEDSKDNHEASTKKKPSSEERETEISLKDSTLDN

Substance: HIV-1 integrase E85F, 6xHis-tagged (enzyme)
- in vitro strand transfer activity with 21-mer DNA substrate, relative to WT IN [1]: 37 % of WT
- in vitro strand transfer activity with pre-processed 19-mer DNA substrate, relative to WT IN [2]: 1.6 fold of WT

Substance: HIV-1 integrase K103E, 6xHis-tagged (enzyme)
- in vitro strand transfer activity with pre-processed 19-mer DNA substrate, relative to WT IN [3]: 29 % of WT

Substance: HIV-1 integrase K103G, 6xHis-tagged (enzyme)
- interaction relative to WT IN (of the WT interaction) (LEDGF/p75): < 0.33
- percent of the WT interaction level (LEDGF/p75): 30 % of WT

Substance: HIV-1 integrase W108F, 6xHis-tagged (enzyme)
- in vitro strand transfer activity with pre-processed 19-mer DNA substrate, relative to WT IN [4]: 30 % of WT
